Experimental findings from article PMC5449627 are described below.

The data set addresses AGO2 (Argonaute 2) (UniProt Q9UKV8). In words: single-molecule FRET. Particulars: guide 5' phosphate; internal amino-C6 U18; single-molecule FRET on immobilized biotinylated target RNA; 100 nM AUF1 where added; buffer, salt, pH and temperature not in the material.

Sequence of AGO2 (Argonaute 2) (Q9UKV8 whole entry): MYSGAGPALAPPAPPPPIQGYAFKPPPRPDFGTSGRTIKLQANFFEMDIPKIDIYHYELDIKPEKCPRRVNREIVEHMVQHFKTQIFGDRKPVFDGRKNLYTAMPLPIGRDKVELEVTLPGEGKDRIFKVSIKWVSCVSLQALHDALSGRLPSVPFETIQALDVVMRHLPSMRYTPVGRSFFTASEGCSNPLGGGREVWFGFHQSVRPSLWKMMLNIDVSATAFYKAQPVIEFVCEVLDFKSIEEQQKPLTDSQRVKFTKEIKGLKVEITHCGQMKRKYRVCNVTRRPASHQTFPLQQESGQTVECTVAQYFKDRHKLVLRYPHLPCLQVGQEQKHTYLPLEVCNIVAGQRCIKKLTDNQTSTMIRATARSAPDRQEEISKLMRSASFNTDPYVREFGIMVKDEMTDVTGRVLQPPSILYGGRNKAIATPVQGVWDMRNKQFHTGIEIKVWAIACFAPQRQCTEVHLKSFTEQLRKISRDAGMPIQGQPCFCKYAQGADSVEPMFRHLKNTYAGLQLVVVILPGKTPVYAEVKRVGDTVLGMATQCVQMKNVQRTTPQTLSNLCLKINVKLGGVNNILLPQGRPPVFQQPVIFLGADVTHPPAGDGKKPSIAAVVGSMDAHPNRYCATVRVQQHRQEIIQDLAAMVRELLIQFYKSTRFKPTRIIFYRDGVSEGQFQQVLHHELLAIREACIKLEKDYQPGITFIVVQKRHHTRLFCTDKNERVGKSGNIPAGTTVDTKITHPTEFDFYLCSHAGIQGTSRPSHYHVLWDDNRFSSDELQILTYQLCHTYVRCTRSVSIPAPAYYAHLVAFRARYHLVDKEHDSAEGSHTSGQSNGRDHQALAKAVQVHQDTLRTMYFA

“UGAGGUAGUAGGUUGUGUGGUU / UAACCACACUGUUGACUACCUCACCCCCCCCCCCCCCCC [let-7b guide / POLR2D RNA with let-7b WT]”: the binding signal (% decrease of binding rate) is 42.

Turning to “UGAGGUAGUAGGUUGUGUGGUU / UAACCACACUGUUGACUACCUCAUUCCUGGUUUUUGGCCUCCACAUCAUCUUUUUUCUUAAUAUUUCAUCCCCCCCCCCCCCCCC [let-7b guide / POLR2D RNA with let-7b WT and AUF1 site]”, the binding signal (% decrease of binding rate) was 78.
